Patent US20150218281A1 (Ablynx, published 2015)

Target: T1, biotinylated hOX40L (R&D Systems, biotinylated in house) (human, UniProt P23510 51-183, biotinylated with Sulfo-NHS-LC-Biotin, sites not stated)
T1 construct: same bought protein as m10, biotinylated; also called biotinylated OX40L
T1 sequence: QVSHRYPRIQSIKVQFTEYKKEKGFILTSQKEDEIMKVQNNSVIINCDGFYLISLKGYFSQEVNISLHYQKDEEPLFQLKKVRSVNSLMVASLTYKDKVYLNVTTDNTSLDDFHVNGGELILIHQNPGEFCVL
Experiment: hOX40L/hOX40 AlphaScreen, assay 3, native

IC50: 0.077 nM
B1: OX40L15B07 (VHH)
VHH: EVQLVESGGGLVQAGGSLRLSCAASRSIGRLDRMGWYRHRTGEPRELVATITGGSSINYGDFVKGRFTISIDNAKNTVYLQMNNLKPEDTAVYYCNFNKYVTSRDTWGQGTQVTVSS
notes: monovalent Nanobody from E. coli; not shown: C-terminal c-myc and His6 tag
